Source: patent US6887474

Molecular target: prostate specific membrane antigen (PSMA) (UniProt Q04609)
Assay: flow cytometry on LnCAP prostate cancer cells

Sequence of UniProt Q04609 (Q04609 whole entry): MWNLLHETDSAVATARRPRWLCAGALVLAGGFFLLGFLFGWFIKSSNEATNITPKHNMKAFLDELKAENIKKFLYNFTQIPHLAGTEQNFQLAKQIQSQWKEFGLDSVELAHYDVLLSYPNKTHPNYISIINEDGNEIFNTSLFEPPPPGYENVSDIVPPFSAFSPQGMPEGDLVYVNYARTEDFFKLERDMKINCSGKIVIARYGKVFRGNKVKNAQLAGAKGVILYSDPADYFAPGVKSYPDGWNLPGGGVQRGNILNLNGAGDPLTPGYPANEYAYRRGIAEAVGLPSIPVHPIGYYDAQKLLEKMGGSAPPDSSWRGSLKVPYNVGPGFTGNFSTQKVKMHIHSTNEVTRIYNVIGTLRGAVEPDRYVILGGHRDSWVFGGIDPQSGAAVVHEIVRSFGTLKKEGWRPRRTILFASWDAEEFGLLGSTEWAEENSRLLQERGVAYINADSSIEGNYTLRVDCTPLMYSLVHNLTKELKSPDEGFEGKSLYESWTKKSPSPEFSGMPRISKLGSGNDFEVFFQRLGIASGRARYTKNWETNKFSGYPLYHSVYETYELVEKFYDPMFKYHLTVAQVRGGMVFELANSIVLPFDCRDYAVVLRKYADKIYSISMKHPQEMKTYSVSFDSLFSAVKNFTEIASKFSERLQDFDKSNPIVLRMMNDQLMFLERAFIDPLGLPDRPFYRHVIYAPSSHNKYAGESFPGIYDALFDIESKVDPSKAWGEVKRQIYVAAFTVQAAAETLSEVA

## antibody 7E11 (ATCC #FB 10494) recognizing prostate specific membrane antigen
  flow cytometry on LnCAP (% positive): 58%
